Measurements as given in US10738094B2, “Peptides and combination of peptides for use in immunotherapy against ovarian cancer and other cancers” (immatics biotechnologies GmbH, priority 2015, dated 2020).

These substances were tested against HLA-A*02:01 (Homo sapiens, UniProt P04439, D140Y/D185E/D98H/E176V/E277Q/G131W/G231S/I119V/I121R/I166T/I218V/L300P/L318F/N151K/N90K/P208A/P217A/Q86G/Q94H/R138H/R169H/T345S) (assay: MHC binding assay (UV-ligand exchange, beta2m ELISA)). Settings: binding to HLA-A*02:01 ranged by peptide exchange yield (UV-ligand exchange, β2m ELISA).
Method in brief: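 UV-cleavable ligand in peptide-MHC complexes was exchanged for test peptide. Exchange yield came from an ELISA on streptavidin-captured complexes diluted 100 fold, detecting β2m with HRP anti-β2m (2 ug/ml, 1 h, 37° C.), TMB, A450.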
For “520 (LAVHPSGVAL; listed as Homo sapiens) [compound 520]”, the Peptide exchange was ““+” (≥10% = +)”. “49 (YLPAVFEEV; listed as Homo sapiens) [compound 49]” was tested, and the Peptide exchange was ““+++” (≥50 = +++)”. For “41 (SLMPHIPGL; listed as Homo sapiens) [compound 41]”, the Peptide exchange was ““+++” (≥50 = +++)”. “373 (SLLEDKGLAEV; listed as Homo sapiens) [compound 373]” was tested, and the Peptide exchange was ““++” (≥20% = ++)”. For “315 (YLQDVVEQA; listed as Homo sapiens) [compound 315]”, the Peptide exchange was ““+++” (≥50 = +++)”. With “342 (HIYDKVMTV; listed as Homo sapiens) [compound 342]” the Peptide exchange was ““+++” (≥50 = +++)”. In the case of “201 (RLVDYLEGI; listed as Homo sapiens) [compound 201]”, the Peptide exchange is reported as ““+++” (≥50 = +++)”. In the case of “299 (YLLETSGNL; listed as Homo sapiens) [compound 299]”, the Peptide exchange is reported as ““+++” (≥50 = +++)”. With “343 (SLLEVNEESTV; listed as Homo sapiens) [compound 343]” the Peptide exchange was ““+++” (≥50 = +++)”. “378 (ALGYFVPYV; listed as Homo sapiens) [compound 378]” was tested, and the Peptide exchange was ““+++” (≥50 = +++)”. For “34 (ILVEADSLWVV; listed as Homo sapiens) [compound 34]”, the Peptide exchange was ““+++” (≥50 = +++)”. In the case of “138 (YQYPRAILSV; listed as Homo sapiens) [compound 138]”, the Peptide exchange is reported as ““+++” (≥50 = +++)”. For “485 (NVPDSFNEV; listed as Homo sapiens) [compound 485]”, the Peptide exchange was ““+++” (≥50 = +++)”. With “522 (TLWYRSPEV; listed as Homo sapiens) [compound 522]” the Peptide exchange was ““++” (≥20% = ++)”. “616 (VLIDEVESL; listed as Homo sapiens) [compound 616]” was tested, and the Peptide exchange was ““+++” (≥50 = +++)”. With “13 (YLMDESLNL; listed as Homo sapiens) [compound 13]” the Peptide exchange was ““+++” (≥50 = +++)”. “610 (LLAPTPYIIGV; listed as Homo sapiens) [compound 610]” was tested, and the Peptide exchange was ““+++” (≥50 = +++)”. For “206 (VLQEGKLQKLAQL; listed as Homo sapiens) [compound 206]”, the Peptide exchange was ““+++” (≥50 = +++)”. In the case of “473 (AMATESILHFA; listed as Homo sapiens) [compound 473]”, the Peptide exchange is reported as ““+++” (≥50 = +++)”. In the case of “95 (SVIPQIQKV; listed as Homo sapiens) [compound 95]”, the Peptide exchange is reported as ““+++” (≥50 = +++)”. With “173 (LLDSASAGLYL; listed as Homo sapiens) [compound 173]” the Peptide exchange was ““+++” (≥50 = +++)”. For “186 (TLFFQQNAL; listed as Homo sapiens) [compound 186]”, the Peptide exchange was ““++” (≥20% = ++)”. For “326 (FLPEALDFV; listed as Homo sapiens) [compound 326]”, the Peptide exchange was ““+++” (≥50 = +++)”. For “181 (LLWAGTAFQV; listed as Homo sapiens) [compound 181]”, the Peptide exchange was ““+++” (≥50 = +++)”. With “370 (SLLQDLVSV; listed as Homo sapiens) [compound 370]” the Peptide exchange was ““+++” (≥50 = +++)”. With “97 (SLINGSFLV; listed as Homo sapiens) [compound 97]” the Peptide exchange was ““+++” (≥50 = +++)”. For “258 (ELAERVPAI; listed as Homo sapiens) [compound 258]”, the Peptide exchange was ““++” (≥20% = ++)”. For “159 (GLVGNPLPSV; listed as Homo sapiens) [compound 159]”, the Peptide exchange was ““++++” (≥75% = ++++)”. In the case of “447 (QLVPALAKV; listed as Homo sapiens) [compound 447]”, the Peptide exchange is reported as ““++” (≥20% = ++)”. In the case of “174 (ALAQYLITA; listed as Homo sapiens) [compound 174]”, the Peptide exchange is reported as ““+++” (≥50 = +++)”. “104 (STMEQNFLL; listed as Homo sapiens) [compound 104]” was tested, and the Peptide exchange was ““++++” (≥75% = ++++)”. “57 (TLAELQPPVQL; listed as Homo sapiens) [compound 57]” was tested, and the Peptide exchange was ““+++” (≥50 = +++)”. With “495 (FIFSEKPVFV; listed as Homo sapiens) [compound 495]” the Peptide exchange was ““+++” (≥50 = +++)”. “74 (ALLDPEVLSIFV; listed as Homo sapiens) [compound 74]” was tested, and the Peptide exchange was ““+++” (≥50 = +++)”. For “146 (SLATAGDGLIEL; listed as Homo sapiens) [compound 146]”, the Peptide exchange was ““++” (≥20% = ++)”. In the case of “622 (RLLGEEVVRVLQA; listed as Homo sapiens) [compound 622]”, the Peptide exchange is reported as ““+++” (≥50 = +++)”. For “277 (LLPPLESLATV; listed as Homo sapiens) [compound 277]”, the Peptide exchange was ““++” (≥20% = ++)”. In the case of “202 (ALLDQQGSRWTL; listed as Homo sapiens) [compound 202]”, the Peptide exchange is reported as ““+++” (≥50 = +++)”. “149 (NLLELFVQL; listed as Homo sapiens) [compound 149]” was tested, and the Peptide exchange was ““+++” (≥50 = +++)”. For “61 (FLQGYQLHL; listed as Homo sapiens) [compound 61]”, the Peptide exchange was ““++++” (≥75% = ++++)”. “439 (YLLQEIYGI; listed as Homo sapiens) [compound 439]” was tested, and the Peptide exchange was ““+++” (≥50 = +++)”. For “275 (YLVYILNEL; listed as Homo sapiens) [compound 275]”, the Peptide exchange was ““++” (≥20% = ++)”. For “50 (SLSELEALM; listed as Homo sapiens) [compound 50]”, the Peptide exchange was ““+++” (≥50 = +++)”. “584 (ALAEVAAMENV; listed as Homo sapiens) [compound 584]” was tested, and the Peptide exchange was ““+++” (≥50 = +++)”. In the case of “446 (QLIPALAKV; listed as Homo sapiens) [compound 446]”, the Peptide exchange is reported as ““+++” (≥50 = +++)”. For “87 (ALPEAPAPLLPHIT; listed as Homo sapiens) [compound 87]”, the Peptide exchange was ““++” (≥20% = ++)”. For “490 (FLLQHVQEL; listed as Homo sapiens) [compound 490]”, the Peptide exchange was ““+++” (≥50 = +++)”. With “246 (LLWEVVSQL; listed as Homo sapiens) [compound 246]” the Peptide exchange was ““+++” (≥50 = +++)”. With “66 (FLDENIGGVAV; listed as Homo sapiens) [compound 66]” the Peptide exchange was ““+++” (≥50 = +++)”. “137 (TLVLTLPTV; listed as Homo sapiens) [compound 137]” was tested, and the Peptide exchange was ““++++” (≥75% = ++++)”. In the case of “274 (SLLFSLFEA; listed as Homo sapiens) [compound 274]”, the Peptide exchange is reported as ““++” (≥20% = ++)”. With “577 (VMFEDGVLMRL; listed as Homo sapiens) [compound 577]” the Peptide exchange was ““+++” (≥50 = +++)”. With “30 (LILDWVPYI; listed as Homo sapiens) [compound 30]” the Peptide exchange was ““+++” (≥50 = +++)”. In the case of “191 (LLQEGQALEYV; listed as Homo sapiens) [compound 191]”, the Peptide exchange is reported as ““++” (≥20% = ++)”. For “518 (KLNAEVACV; listed as Homo sapiens) [compound 518]”, the Peptide exchange was ““+++” (≥50 = +++)”. With “589 (KLYPQLPAEI; listed as Homo sapiens) [compound 589]” the Peptide exchange was ““+++” (≥50 = +++)”. For “394 (LLAVIGGLVYL; listed as Homo sapiens) [compound 394]”, the Peptide exchange was ““+++” (≥50 = +++)”. For “579 (NLMEMVAQL; listed as Homo sapiens) [compound 579]”, the Peptide exchange was ““++” (≥20% = ++)”. “73 (NIFDLQIYV; listed as Homo sapiens) [compound 73]” was tested, and the Peptide exchange was ““+++” (≥50 = +++)”.
